Reference: PMC5241105 (Science (New York, N.Y.), 2016)

Molecular target: thermolysin cleaved Ebola virus GP (GPTHL) (Ebola virus (EBOV), UniProt Q05320)
Assay: BLI

B1: Fab100 (antigen-binding fragment of mAb100) (Fab, V domains shown)
VH: QVQLQESGPGLVKPSDTLSLTCTVSGGSLSSFYWSWIRQPPGKGLEWIGYIYYSGSPNYSPSLESRVTMSVDTTRNQISLKLDSVTAADTAVYYCVRASRSYYWGSYRPTAFDSWGQGTLVTVSS
VL: YELTQPLSVSVSPGQTAIFTCSGDNLGDKYVCWFQQRPGQSPMLLIYQDNKRPSGIPERFSGSNSGNTATLTISGTQSTDEADYYCQTWDSTVVFGGGTKLTVL
binding result: binds

B2: Fab114 (antigen-binding fragment of mAb114) (Fab, V domains shown)
VH: EVQLVESGGGLIQPGGSLRLSCAASGFALRMYDMHWVRQTIDKRLEWVSAVGPSGDTYYADSVKGRFAVSRENAKNSLSLQMNSLTAGDTAIYYCVRSDRGVAGLFDSWGQGILVTVSS
VL: DIQMTQSPSSLSASVGDRITITCRASQAFDNYVAWYQQRPGKVPKLLISAASALHAGVPSRFSGSGSGTHFTLTISSLQPEDVATYYCQNYNSAPLTFGGGTKVEIK
Kd: 8 nM
